Measured values published in IntAct's records for PubMed 36127429.

B1: Protein SHMOOSE (Homo sapiens), C0HM83 (parent)
chain: MPPCLTTWLSQLLKDNSYPLVLGPKNFGATPNKSNNHAHYYNHPNPDFPNSPHPYHPR
partner: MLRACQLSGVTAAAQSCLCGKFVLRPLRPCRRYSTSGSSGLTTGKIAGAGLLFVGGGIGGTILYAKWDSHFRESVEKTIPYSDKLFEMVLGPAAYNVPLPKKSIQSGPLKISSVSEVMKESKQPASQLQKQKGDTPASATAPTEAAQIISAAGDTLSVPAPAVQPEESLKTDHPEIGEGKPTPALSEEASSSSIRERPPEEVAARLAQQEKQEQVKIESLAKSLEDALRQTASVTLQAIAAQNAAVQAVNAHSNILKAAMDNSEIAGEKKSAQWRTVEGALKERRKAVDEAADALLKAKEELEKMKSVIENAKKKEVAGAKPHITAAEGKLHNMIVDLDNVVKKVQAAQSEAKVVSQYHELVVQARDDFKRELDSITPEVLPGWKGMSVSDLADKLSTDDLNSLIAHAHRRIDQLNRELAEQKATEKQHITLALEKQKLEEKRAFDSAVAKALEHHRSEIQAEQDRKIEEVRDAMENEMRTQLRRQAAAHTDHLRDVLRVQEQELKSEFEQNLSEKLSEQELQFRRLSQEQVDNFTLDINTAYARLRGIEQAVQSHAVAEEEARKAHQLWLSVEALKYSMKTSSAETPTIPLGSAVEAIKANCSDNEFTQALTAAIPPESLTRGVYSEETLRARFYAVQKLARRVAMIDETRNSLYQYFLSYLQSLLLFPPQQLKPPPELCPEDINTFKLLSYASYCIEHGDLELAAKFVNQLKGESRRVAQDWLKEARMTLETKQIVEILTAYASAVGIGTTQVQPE

Variants of: B1
Conditions: with mic60_human IMMT

effect of a mutation on the interaction	Variant
with no effect	D47N
